This is an account of results in paper PMC6166989 (PLoS Pathogens, 2018).

The data set deals with the molecule itself. Put plainly: SEC. (Size exclusion chromatography separates by hydrodynamic size, large species first.)

B1: PV-2C-[change] (poliovirus 2C^ATPase residues 116–329) (domain or fragment)
chain: SKHRIEPVCLLVHGSPGTGKSVATNLIARAIAERENTSTYSLPPDPSHFDGYKQQGVVIMDDLNQNPDGADMKLFCQMVSTVEFIPPMASLEEKGILFTSNYVLASTNSSRISPPTVAHSDALARRFAFDMDIQVMNEYSRDGKLNMAMATEMCKNCHQPANFKRCCPLVCGKAIQLMDKSSRVRYSIDQITTMIINERNRRSNIGNCMEALFQ
B1: the “stoichiometry N” value was 4.

The stoichiometry N is the number of molecules, sites or subunits per partner or assembly.
